Results as given in publication PMC7864917.

Target: wild-type pig RyR1 (ryanodine receptor 1) (pig (purified from porcine skeletal muscle)) (UniProt P16960)
UniProt P16960, sequence (P16960 whole entry): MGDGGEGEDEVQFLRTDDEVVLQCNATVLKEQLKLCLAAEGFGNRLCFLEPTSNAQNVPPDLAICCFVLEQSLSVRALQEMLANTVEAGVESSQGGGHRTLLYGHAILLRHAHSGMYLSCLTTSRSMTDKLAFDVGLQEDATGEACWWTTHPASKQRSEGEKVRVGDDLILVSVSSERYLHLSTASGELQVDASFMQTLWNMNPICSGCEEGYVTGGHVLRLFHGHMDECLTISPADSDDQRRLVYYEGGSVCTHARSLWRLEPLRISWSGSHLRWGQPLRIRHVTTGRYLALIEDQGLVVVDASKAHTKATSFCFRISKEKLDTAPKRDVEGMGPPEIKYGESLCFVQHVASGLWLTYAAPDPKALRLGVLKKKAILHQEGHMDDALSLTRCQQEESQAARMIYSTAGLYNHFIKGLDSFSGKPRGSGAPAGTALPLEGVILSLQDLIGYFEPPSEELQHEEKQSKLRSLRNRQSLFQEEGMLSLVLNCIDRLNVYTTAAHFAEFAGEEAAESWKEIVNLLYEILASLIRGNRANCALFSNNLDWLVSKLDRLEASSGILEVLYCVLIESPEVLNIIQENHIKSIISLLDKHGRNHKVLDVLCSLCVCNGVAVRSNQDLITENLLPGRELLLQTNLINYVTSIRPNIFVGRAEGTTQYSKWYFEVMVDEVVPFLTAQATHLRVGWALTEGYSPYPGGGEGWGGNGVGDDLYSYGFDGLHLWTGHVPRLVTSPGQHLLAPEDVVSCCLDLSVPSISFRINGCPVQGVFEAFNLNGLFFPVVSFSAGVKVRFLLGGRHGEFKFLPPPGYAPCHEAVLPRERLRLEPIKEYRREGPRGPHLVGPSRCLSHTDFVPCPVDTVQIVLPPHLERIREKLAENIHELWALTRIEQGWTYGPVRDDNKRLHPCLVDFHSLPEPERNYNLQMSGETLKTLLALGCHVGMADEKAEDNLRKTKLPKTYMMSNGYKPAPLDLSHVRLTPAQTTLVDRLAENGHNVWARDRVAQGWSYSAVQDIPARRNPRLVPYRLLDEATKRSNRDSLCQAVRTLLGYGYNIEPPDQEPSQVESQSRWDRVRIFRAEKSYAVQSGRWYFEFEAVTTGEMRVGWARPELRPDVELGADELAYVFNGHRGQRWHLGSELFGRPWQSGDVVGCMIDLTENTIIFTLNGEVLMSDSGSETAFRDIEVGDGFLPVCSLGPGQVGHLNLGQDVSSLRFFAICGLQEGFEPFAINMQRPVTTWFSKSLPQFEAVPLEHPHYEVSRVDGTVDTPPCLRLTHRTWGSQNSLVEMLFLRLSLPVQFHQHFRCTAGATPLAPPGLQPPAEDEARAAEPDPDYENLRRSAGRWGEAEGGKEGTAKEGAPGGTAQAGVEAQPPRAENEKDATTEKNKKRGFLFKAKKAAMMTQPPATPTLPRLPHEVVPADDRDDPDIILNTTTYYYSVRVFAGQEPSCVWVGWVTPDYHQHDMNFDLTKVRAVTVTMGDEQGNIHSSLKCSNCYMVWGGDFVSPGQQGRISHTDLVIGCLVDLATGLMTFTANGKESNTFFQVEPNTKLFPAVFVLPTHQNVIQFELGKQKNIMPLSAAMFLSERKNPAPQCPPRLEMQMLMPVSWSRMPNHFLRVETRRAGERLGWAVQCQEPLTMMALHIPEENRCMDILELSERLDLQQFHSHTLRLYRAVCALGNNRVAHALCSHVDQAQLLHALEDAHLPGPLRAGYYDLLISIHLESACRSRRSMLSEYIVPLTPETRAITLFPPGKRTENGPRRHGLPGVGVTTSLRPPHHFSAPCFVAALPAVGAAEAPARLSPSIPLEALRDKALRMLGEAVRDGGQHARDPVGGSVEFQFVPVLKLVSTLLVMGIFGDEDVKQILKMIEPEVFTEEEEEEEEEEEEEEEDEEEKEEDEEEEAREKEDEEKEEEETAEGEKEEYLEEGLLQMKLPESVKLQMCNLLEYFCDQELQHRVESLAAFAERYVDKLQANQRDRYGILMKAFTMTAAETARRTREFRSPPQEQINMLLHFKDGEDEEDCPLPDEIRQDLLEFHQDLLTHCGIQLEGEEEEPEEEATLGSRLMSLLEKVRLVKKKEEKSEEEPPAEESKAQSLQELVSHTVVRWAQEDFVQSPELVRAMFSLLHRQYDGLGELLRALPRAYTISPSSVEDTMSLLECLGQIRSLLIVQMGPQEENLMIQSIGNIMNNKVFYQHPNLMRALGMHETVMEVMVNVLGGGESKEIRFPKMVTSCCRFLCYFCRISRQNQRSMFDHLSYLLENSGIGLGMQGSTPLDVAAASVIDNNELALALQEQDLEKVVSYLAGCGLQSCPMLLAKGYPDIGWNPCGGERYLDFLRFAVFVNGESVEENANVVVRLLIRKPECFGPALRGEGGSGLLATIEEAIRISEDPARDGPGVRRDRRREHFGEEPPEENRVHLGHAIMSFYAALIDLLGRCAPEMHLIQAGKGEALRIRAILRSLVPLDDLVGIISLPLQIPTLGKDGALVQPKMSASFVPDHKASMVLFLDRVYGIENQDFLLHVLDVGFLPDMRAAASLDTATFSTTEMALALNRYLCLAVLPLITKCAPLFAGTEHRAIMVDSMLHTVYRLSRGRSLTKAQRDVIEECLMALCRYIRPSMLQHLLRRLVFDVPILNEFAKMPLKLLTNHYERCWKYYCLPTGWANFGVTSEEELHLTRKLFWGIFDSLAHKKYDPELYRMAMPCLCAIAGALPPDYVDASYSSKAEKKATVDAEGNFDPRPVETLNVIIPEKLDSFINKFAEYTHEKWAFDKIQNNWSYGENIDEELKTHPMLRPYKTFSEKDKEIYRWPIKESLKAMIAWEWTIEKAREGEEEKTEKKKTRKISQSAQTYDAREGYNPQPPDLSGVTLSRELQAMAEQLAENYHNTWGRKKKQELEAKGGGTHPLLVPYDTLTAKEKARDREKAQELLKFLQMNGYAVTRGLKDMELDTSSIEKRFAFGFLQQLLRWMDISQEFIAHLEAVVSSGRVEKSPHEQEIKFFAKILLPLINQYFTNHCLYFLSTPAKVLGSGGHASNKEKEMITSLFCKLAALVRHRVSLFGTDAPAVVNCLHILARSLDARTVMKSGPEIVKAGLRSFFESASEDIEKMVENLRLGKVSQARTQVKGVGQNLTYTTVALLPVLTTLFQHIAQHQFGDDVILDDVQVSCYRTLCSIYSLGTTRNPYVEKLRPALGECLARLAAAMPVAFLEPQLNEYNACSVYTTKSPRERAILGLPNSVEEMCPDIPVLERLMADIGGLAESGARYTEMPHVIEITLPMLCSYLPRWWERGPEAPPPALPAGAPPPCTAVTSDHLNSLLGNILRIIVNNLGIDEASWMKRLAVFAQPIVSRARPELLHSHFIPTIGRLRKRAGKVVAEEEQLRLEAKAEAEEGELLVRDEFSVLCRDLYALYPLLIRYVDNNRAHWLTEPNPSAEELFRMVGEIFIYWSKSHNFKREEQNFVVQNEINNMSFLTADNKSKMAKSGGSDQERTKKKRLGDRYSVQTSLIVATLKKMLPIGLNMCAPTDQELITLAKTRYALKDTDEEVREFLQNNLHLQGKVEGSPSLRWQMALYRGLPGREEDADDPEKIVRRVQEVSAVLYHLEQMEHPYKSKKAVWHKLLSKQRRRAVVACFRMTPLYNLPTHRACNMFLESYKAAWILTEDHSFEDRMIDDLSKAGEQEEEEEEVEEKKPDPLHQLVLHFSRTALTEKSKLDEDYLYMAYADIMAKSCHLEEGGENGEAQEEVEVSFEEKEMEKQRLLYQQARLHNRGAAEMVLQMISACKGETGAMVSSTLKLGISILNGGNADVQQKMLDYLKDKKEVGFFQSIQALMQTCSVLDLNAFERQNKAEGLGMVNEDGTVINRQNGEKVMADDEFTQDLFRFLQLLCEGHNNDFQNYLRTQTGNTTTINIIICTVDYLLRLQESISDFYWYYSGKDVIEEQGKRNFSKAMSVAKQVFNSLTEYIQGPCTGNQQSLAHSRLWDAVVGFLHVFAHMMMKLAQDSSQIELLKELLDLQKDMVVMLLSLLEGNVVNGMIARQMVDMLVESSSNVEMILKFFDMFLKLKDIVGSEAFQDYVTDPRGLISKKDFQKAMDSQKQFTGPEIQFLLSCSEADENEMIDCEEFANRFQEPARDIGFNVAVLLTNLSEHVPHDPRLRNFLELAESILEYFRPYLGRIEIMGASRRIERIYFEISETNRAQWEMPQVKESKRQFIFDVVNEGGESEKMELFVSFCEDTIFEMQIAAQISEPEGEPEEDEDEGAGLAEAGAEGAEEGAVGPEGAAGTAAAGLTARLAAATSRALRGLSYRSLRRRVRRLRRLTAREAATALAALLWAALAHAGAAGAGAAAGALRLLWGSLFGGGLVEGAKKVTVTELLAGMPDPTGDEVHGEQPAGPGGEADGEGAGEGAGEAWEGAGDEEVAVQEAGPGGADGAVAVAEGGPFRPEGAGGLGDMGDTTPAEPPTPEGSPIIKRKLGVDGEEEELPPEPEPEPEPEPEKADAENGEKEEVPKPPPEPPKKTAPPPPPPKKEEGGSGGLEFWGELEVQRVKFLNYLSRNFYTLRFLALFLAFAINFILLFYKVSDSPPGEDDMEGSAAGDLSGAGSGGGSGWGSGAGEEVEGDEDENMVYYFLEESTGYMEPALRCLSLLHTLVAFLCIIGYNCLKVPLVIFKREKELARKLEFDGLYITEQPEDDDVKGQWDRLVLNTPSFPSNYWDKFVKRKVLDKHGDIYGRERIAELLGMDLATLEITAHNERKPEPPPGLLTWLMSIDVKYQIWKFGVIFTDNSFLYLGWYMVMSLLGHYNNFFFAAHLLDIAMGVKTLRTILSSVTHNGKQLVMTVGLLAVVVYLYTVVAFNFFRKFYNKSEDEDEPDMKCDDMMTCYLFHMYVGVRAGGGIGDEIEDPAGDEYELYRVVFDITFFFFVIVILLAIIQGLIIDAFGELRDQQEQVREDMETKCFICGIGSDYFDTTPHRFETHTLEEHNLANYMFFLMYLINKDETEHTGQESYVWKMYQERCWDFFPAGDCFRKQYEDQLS

With “apo-calmodulin (from UniProt P0DP23 1-149) (natural protein)” the single-channel open probability (Po) in planar lipid bilayers with 1 uM calmodulin, 40 nM free Ca2+, 2 mM ATP was 2 fold.
